Laboratory results published in article PMC5026608.

Assays:
[1] = substrate: C[S+](CC[C@H](N)C(=O)O)C[C@H]1O[C@@H](n2cnc3c(N)ncnc32)[C@H](O)[C@@H]1O; assay: purified protein; conditions: saturating ClNP 1.5 mM, 100 mM Tris pH 8.0, 37 °C, methyl donor
[2] = substrate: C[S+](CC[C@H](N)c1nn[nH]n1)C[C@H]1O[C@@H](n2cnc3c(N)ncnc32)[C@H](O)[C@@H]1O; assay: methyltransferase assay, HPLC / A410; assay type: biochemical, Streptomyces peucetius; conditions: saturating ClNP 1.5 mM, 100 mM Tris pH 8.0, 37 °C, methyl donor

B1: DnrK (Streptomyces peucetius) (protein)
chain: MTAEPTVAARPQQIDALRTLIRLGSLHTPMVVRTAATLRLVDHILAGARTVKALAARTDTRPEALLRLIRHLVAIGLLEEDAPGEFVPTEVGELLADDHPAAQRAWHDLTQAVARADISFTRLPDAIRTGRPTYESIYGKPFYEDLAGRPDLRASFDSLLACDQDVAFDAPAAAYDWTNVRHVLDVGGGKGGFAAAIARRAPHVSATVLEMAGTVDTARSYLKDEGLSDRVDVVEGDFFEPLPRKADAIILSFVLLNWPDHDAVRILTRCAEALEPGGRILIHERDDLHENSFNEQFTELDLRMLVFLGGALRTREKWDGLAASAGLVVEEVRQLPSPTIPYDLSLLVLAPAATGA
- Km [1]: 138 ± 7 µM
- kcat [1]: 0.000283 s⁻¹
- Km [2]: 335 ± 40 µM
- kcat [2]: 0.000517 ± 1.67e-05 s⁻¹
